Legend:
[1] = target: Geobacillus stearothermophilus IstA (IS5376 transposase, IS21 family) (Geobacillus stearothermophilus); test: cryo-EM structure; IstA mixed 1:1.5 with the pre-cleaved right TIR DNA (5-nt 5' overhang), complex isolated by gel filtration; 50 mM HEPES pH 7.5, 150 mM NaCl, 5 mM MgCl2, 1 mM DTT, 0.005% Tween-20; 3.4 Å, C2 symmetry
[2] = target: T1, IstA-MBP (Geobacillus stearothermophilus, UniProt Q45618 1-400); test: fluorescence anisotropy; apparent Kd; Hill coefficient 2.2; 5 mM Mg2+; Fluorescence anisotropy: 50 mM HEPES pH 7.5, 150 mM NaCl, 5 mM MgCl2, 10% glycerol, 1 mM beta-mercaptoethanol, 0.1 mg/ml BSA, 5 nM DNA, 37 °C, 5 min; conditions: protein: recombinant; tags: C-terminal TEV-cleavable MBP-His6; label: 5'-FAM on strand 1; blunt
T1 sequence: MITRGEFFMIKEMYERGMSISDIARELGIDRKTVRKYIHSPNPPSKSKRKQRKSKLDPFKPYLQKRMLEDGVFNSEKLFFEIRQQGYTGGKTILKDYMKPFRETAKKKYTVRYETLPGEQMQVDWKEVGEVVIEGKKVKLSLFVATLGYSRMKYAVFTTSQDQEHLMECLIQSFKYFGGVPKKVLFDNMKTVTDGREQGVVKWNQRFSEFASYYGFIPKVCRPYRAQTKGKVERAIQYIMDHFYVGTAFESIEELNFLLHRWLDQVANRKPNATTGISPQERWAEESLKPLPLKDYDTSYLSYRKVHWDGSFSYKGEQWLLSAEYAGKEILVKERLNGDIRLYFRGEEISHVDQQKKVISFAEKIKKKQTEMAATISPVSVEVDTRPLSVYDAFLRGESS

[3] = target: T1, IstA-MBP; test: fluorescence anisotropy; apparent Kd; Hill coefficient 1.2; 5 mM Mg2+; Fluorescence anisotropy: 50 mM HEPES pH 7.5, 150 mM NaCl, 5 mM MgCl2, 10% glycerol, 1 mM beta-mercaptoethanol, 0.1 mg/ml BSA, 5 nM DNA, 37 °C, 5 min; conditions: protein: recombinant; tags: C-terminal TEV-cleavable MBP-His6; label: 5'-FAM on strand 1; blunt
[4] = target: T1, IstA-MBP; test: fluorescence anisotropy; apparent Kd; Hill coefficient 3.6; 5 mM Mg2+; Fluorescence anisotropy: 50 mM HEPES pH 7.5, 150 mM NaCl, 5 mM MgCl2, 10% glycerol, 1 mM beta-mercaptoethanol, 0.1 mg/ml BSA, 5 nM DNA, 37 °C, 5 min; conditions: protein: recombinant; tags: C-terminal TEV-cleavable MBP-His6; label: 5'-FAM on strand 1; blunt
[5] = target: T2, IstA (Geobacillus stearothermophilus, UniProt Q45618 1-400); test: cryo-EM structure (3.4 A); 5 mM Mg2+; IstA tetramer with two DNA ends; Fluorescence anisotropy: 50 mM HEPES pH 7.5, 150 mM NaCl, 5 mM MgCl2, 10% glycerol, 1 mM beta-mercaptoethanol, 0.1 mg/ml BSA, 5 nM DNA, 37 °C, 5 min; conditions: protein: recombinant; tags: MBP-His6 tag removed by TEV; 5' overhang 5 nt on strand 2; two duplex copies per tetramer
T2 sequence: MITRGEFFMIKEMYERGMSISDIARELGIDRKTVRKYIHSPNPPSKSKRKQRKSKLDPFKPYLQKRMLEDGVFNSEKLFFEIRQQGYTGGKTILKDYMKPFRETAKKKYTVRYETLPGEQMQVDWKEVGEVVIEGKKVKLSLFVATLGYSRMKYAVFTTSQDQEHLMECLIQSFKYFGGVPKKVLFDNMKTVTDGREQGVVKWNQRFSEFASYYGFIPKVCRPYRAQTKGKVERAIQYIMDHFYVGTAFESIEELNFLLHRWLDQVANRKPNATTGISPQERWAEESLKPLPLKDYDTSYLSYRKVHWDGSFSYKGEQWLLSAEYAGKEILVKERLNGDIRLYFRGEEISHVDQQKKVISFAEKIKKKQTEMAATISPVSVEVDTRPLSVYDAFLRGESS

[6] = target: T1, IstA-MBP; test: fluorescence anisotropy; apparent Kd; Hill coefficient 1.5; 5 mM Mg2+; Fluorescence anisotropy: 50 mM HEPES pH 7.5, 150 mM NaCl, 5 mM MgCl2, 10% glycerol, 1 mM beta-mercaptoethanol, 0.1 mg/ml BSA, 5 nM DNA, 37 °C, 5 min; conditions: protein: recombinant; tags: C-terminal TEV-cleavable MBP-His6; label: 5'-FAM on strand 1; blunt

For “Geobacillus stearothermophilus IstA (IS5376 transposase, IS21 family) (enzyme)”, the stoichiometry N [1] was 4.

B1: Rd27 (dsDNA)
DNA 1: TGCTAACACGTCGGATCATCGCAAGCA
DNA 2: TGCTTGCGATGATCCGACGTGTTAGCA
With B1 the Kd [2] was 121 nM.

B2: R1 (27 bp right TIR) (dsDNA)
DNA 1: TTGGGGAAAAAATAATCGGCCTTGACA
DNA 2: TGTCAAGGCCGATTATTTTTTCCCCAA
With B2 the Kd [3] was 176 nM.

B3: R1-R2 (pre-cleaved full right TIR) (dsDNA)
DNA 1: CCTTCTGGGGAATTTTAAACCGGCGATTTTGGGGAAAAAATAATCGGCCTTGACA
DNA 2: TGTCAAGGCCGATTATTTTTTCCCCAAAATCGCCGGTTTAAAATTCCCCAGAAGG
For B3, the Kd [4] was 125 nM.

B4: Pre-cleaved right TIR with 5 nt 5' overhang (dsDNA)
DNA 1: CCTTCTGGGGAATTTTAAACCGGCGATTTTGGGGAAAAAATAATCGGCCTTGACA
DNA 2: ATTCATGTCAAGGCCGATTATTTTTTCCCCAAAATCGCCGGTTTAAAATTCCCCAGAAGG
B4: binds [5].

B5: Rd60 (dsDNA)
DNA 1: TGCTTGCGATGATCCGACGTGTTAGCCACGCTGACTAGTTATGCCATGCCTCCCTTCAGG
DNA 2: CCTGAAGGGAGGCATGGCATAACTAGTCAGCGTGGCTAACACGTCGGATCATCGCAAGCA
In the case of B5, the Kd [6] is reported as 191 nM.
